Here are results for 38 sequences from the supplement of paper PMC7877785.

The data set in a line: self-splicing fitness, log relative to wild type (ln ratio); higher = more splicing; Tetrahymena group I intron in knt gene, E. coli kanamycin selection, DiMSum; sequences stand for … in CUCUCU…GGAGGGAAAAGUUAUCAGGCAUGCACCUGGUAGCUAGUCUUUAAACCAAUAGAUUGCAUCGGUUUAAAAGGCAAGACCGUCAAAUUGCGGGAAAGGGGUCAACAGCCGUUCAGUACCAAGUCUCAGGGGAAACUUUGAGAUGGCCUUGCAAAGGGUAUGGUAAUAAGCUGACGGACAUGGUCCUAACCACGCAGCCAAGUCCUAAGUCAACAGAUCUUCUGUUGAUAUGGAUGCAGUUCACAGACUAAAUGUCGGUCGGGGAAGAUGUAUUCUUCUCAUAAGAUAUAGUCGGACCUCUCCUUAAUGGGAGCUAGCGGAUGAAGUGAUGCAACACUGGAGCCGCUGGGAACUAAUUUGUAUGCGAAAGUAUAUUGAUUAGUUUUGGAGUACUCGUGGUCG
Put shortly: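 DiMSum derived fitness as the error-weighted combination of fold changes across replicates, kanamycin versus no kanamycin, normalised to wild type. E. coli BL21(DE3) held the library, which randomised all eight P1ex-region intron nucleotides within the knt kanamycin-resistance gene on pET-22b(+). Six replicate transformations grew overnight at 37°C or 30°C on LB agar with or without 25 μg/mL kanamycin, also containing 100 μg/mL carbenicillin, 50 μM IPTG and 0.2% rhamnose, and pooled colonies were amplicon-sequenced on an Illumina HiSeq 2500.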

± gives the uncertainty stated by the source.

With AUCGAGCAAUAUUACGAAUU, the “self-splicing fitness (ln)” value reads like this: (30 °C) -3.57 ± 0.25; (37 °C) -2.1 ± 0.2.
For AUCGAGCAAUAUUACGACGG the same measures were -3.75 ± 0.44 and -1.7 ± 0.33.
AUCGAGCAAUAUUACGAGUU: the “self-splicing fitness (ln)” value was -2.66 ± 0.23 (30 °C) and -1.31 ± 0.18 (37 °C).
On to AUCGAGCAAUAUUACGCAAG, for which the “self-splicing fitness (ln)” value reads like this: (30 °C) -3.22 ± 0.43; (37 °C) -1.72 ± 0.26.
Consider AUCGAGCAAUAUUACGCGGC, for which the “self-splicing fitness (ln)” value reads like this: (30 °C) -2.86 ± 0.5; (37 °C) -3.13 ± 0.47.
As for AUCGAGCAAUAUUACGGCGG, the “self-splicing fitness (ln)” value (30 °C) was -2.61 ± 0.14 and the “self-splicing fitness (ln)” value (37 °C) is -1.36 ± 0.14.
The corresponding values for AUCGAGCAAUAUUACGGGAA are -2.59 ± 0.24 and -2.4 ± 0.22.
The corresponding values for AUCGAGCAAUAUUACGGGUC are -3.91 ± 0.19 and -3.15 ± 0.18.
Regarding AUCGAGCAAUAUUACGGUGG, for the setting “37 °C”, the “self-splicing fitness (ln)” value was -2.04 ± 0.36.
Turning to AUCGAGCAAUAUUACGGUUG, the “self-splicing fitness (ln)” value by setting is: (30 °C) -3.96 ± 0.42; (37 °C) -3.32 ± 0.37.
The corresponding values for AUCGAGCAAUAUUACGUCAG are -3.36 ± 0.21 and -2.99 ± 0.22.
On to AUCGAGCAAUAUUACGUCUC, for which the “self-splicing fitness (ln)” value reads like this: (30 °C) -3.13 ± 0.22; (37 °C) -2.18 ± 0.33.
For AUCGAGCAAUAUUACGUGGC the same measures were -2.91 ± 0.26 and -2.52 ± 0.49.
Consider AUCGAGCAAUAUUACGUGUA, for which the “self-splicing fitness (ln)” value is -3.46 ± 0.33 (30 °C) and -2.11 ± 0.18 (37 °C).
For AUCGAGCAAUAUUACGUUAG, the “self-splicing fitness (ln)” value is, setting by setting: (30 °C) -3.73 ± 0.29; (37 °C) -0.583 ± 0.21.
For AUCGAGCAAUAUUACGUUCU the same measures were -1.32 ± 0.074 and -1 ± 0.089.
For AUCGAGCAAUAUUACGUUGA the same measures were -3.44 ± 0.27 and -2.94 ± 0.22.
The corresponding values for AUCGAGCAAUAUUACGUUGG are -4.07 ± 0.42 and -2.37 ± 0.31.
For the sequence AUCUAGCAAUAUUACGAUUU, the “self-splicing fitness (ln)” value is -0.629 ± 0.084 (30 °C) and 0.317 ± 0.11 (37 °C).
For AUCUAGCAAUAUUACGCAAC the same measures were -3.38 ± 0.37 and -2.06 ± 0.32.
The corresponding values for AUCUAGCAAUAUUACGCACU are -1.42 ± 0.17 and 0.0807 ± 0.17.
For AUCUAGCAAUAUUACGCAUC the same measures were -4.16 ± 0.47 and -2.81 ± 0.4.
Consider AUCUAGCAAUAUUACGCCGU, for which the “self-splicing fitness (ln)” value (30 °C) is -0.173 ± 0.089 and the “self-splicing fitness (ln)” value (37 °C) is -0.324 ± 0.1.
For AUCUAGCAAUAUUACGCCUA, the “self-splicing fitness (ln)” value by setting is: (30 °C) -1.09 ± 0.16; (37 °C) -0.389 ± 0.16.
For AUCUAGCAAUAUUACGCGAG the same measures were -1.92 ± 0.14 and -0.183 ± 0.1.
The corresponding values for AUCUAGCAAUAUUACGGCGG are -1.12 ± 0.083 and -1.15 ± 0.1.
For AUCUAGCAAUAUUACGGGCA the same measures were -1.25 ± 0.15 and -0.862 ± 0.18.
Consider AUCUAGCAAUAUUACGGGGA, for which the “self-splicing fitness (ln)” value runs as follows: (30 °C) -1.48 ± 0.073; (37 °C) -1.03 ± 0.087.
For AUCUAGCAAUAUUACGGUAA the same measures were -0.976 ± 0.12 and -0.736 ± 0.14.
For AUCUAGCAAUAUUACGUAGA, the “self-splicing fitness (ln)” value is -2.39 ± 0.12 (30 °C) and -0.832 ± 0.11 (37 °C).
Turning to AUCUAGCAAUAUUACGUCAA, the “self-splicing fitness (ln)” value by setting is: (30 °C) -2.6 ± 0.29; (37 °C) -1.68 ± 0.21.
Regarding AUCUAGCAAUAUUACGUCAC, the “self-splicing fitness (ln)” value reads like this: (30 °C) -4.04 ± 0.26; (37 °C) -2.11 ± 0.2.
AUCUAGCAAUAUUACGUUGG: the “self-splicing fitness (ln)” value runs as follows: (30 °C) -3.4 ± 0.19; (37 °C) -1.88 ± 0.19.
For AUGAAGCAAUAUUACGAACC the same measures were 0.0578 ± 0.14 and 0.124 ± 0.17.
AUGAAGCAAUAUUACGACCC: where the note is “30 °C”, the “self-splicing fitness (ln)” value is -1.6 ± 0.22.
With AUGAAGCAAUAUUACGAUGA, the “self-splicing fitness (ln)” value was -0.515 ± 0.07 (30 °C) and 0.274 ± 0.089 (37 °C).
In the case of AUGAAGCAAUAUUACGAUUA, the “self-splicing fitness (ln)” value was -0.416 ± 0.082 (30 °C) and 0.189 ± 0.12 (37 °C).
In the case of AUGAAGCAAUAUUACGAUUC, the “self-splicing fitness (ln)” value is, setting by setting: (30 °C) -2.23 ± 0.1; (37 °C) -1.33 ± 0.14.
